{"source": "patent US4774321A", "about": "“DP100 EGF and insulin-binding protein from Drosophila cells” (Massachusetts Institute of Technology, priority 1986, dated 1988)", "key": {"dp100 [1]": {"molecular_target": "T1, dp100 (Drosophila melanogaster, UniProt P22817)", "T1 construct": "detergent-solubilized membranes from Drosophila-cultured cell lines are immunoprecipitated with anti-EGF receptor antiserum; endogenous in cells; host or cells: Drosophila Schneider L2 and Kc cells (solubilized membrane or cytoplasmic protein, immunoprecipitated)", "T1 sequence (P22817 1-990)": "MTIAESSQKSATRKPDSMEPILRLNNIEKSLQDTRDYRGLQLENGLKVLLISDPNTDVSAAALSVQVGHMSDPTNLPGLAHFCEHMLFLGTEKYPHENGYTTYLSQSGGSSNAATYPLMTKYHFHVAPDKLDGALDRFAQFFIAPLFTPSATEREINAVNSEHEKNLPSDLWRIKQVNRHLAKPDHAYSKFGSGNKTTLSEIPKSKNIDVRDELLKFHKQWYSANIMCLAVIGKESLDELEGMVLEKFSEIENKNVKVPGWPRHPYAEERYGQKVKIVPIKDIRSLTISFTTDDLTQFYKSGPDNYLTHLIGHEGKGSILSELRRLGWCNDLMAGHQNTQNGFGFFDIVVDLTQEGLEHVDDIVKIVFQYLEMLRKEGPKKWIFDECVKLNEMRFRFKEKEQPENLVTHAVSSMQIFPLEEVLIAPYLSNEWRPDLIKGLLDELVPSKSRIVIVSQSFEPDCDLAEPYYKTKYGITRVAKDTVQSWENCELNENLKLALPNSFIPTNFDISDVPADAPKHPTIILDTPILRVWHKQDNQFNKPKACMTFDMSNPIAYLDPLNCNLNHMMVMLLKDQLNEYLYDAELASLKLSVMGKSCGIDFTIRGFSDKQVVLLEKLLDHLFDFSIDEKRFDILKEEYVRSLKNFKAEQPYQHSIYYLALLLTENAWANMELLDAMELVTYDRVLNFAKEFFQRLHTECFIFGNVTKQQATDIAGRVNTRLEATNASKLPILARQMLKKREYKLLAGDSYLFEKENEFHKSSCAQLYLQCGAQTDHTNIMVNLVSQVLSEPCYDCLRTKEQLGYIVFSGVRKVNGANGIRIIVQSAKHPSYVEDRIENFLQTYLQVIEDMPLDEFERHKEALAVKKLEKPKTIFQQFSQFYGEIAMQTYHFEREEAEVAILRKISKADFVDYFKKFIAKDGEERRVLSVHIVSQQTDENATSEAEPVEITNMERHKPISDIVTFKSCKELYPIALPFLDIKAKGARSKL", "test": "Affinity labelling of anti-EGF receptor immunoprecipitates (dp100) with 125I-labelled growth factors", "format": "binding", "details": "for affinity labelling (crosslinking) of dp100 by 125I-labelled ligand: disuccinimidyl suberate crosslinking, immunoprecipitates", "description": "(§1) Affinity Labeling of Immunoprecipitates: The dp100 protein is found in the membranes and cytoplasm of the Drosophila cells. Membrane protein is solubilized in 1 to 2% Triton X-100, 10% glycerol, 50 mM Hepes, pH 7.0, for 60 min at 4° C. Typically, 500 microgram of Drosophila membrane protein or 100 microgram of Swiss 3T3 membrane protein are used per sample. Unsolubilized material is removed by centrifugation at 12,000 x g for 10 min. The solublized membrane protein or cytoplasmic protein is diluted 1:2 and precleared by incubation with protein A-Sepharose beads (Pharmacia Fine Chemical Co., Piscataway, NJ). The cleared supernatants are treated overnight with anti-EGF receptor antiserum (1:10 dilution), anti-insulin receptor antiserum (1:50), or rabbit preimmune serum (1:10), and the product precipitated with protein A-Sepharose beads. The immunopellets are washed three times with 50 mM Hepes, pH 7.0, 50 mM NaCl, 10% glycerol, 0.1% Triton X-100 and resuspended in 25 mM Hepes, 50 mM NaCl, 0.1% Triton X-100, 1 mg of bovine serum albumin per ml. 125I-EGF (35 nM) or 125I-insulin (20 nM) is added, and the samples incubated 60 min at 15° C. Binding specificity is tested by the simultaneous addition of a 1000-fold excess of unlabeled ligand (30 microM) and labeled ligand. Bound growth factor is crosslinked to the immunoprecipitates by addition of disuccinimidyl suberate to 0.4 mM and incubation for 15 min at 0° C. The samples are then centrifuged and the supernatant removed. The pellets are resuspended in sample buffer (33 mM Tris.HCl, pH 6.5, 2% NaDodS04, 10% glycerol, 0.1% bromophenol blue, 2% 2-mercaptoethanol) and boiled. The protein A-Sepharose beads are removed by centrifugation, and the supernatants run on 6.5% polyacrylamide/NaDodS04 gels.\nTo increase sensitivity of detection, detergent-solubilized membranes from Drosophila-cultured cell lines are immunoprecipitated with anti-EGF receptor antiserum, anti-insulin receptor antiserum, or rabbit preimmune serum prior to affinity labeling. Radiolabeled growth factors are added to the immune precipitates in the presence or absence of excess growth factor, allowed to bind at 15° C., and then crosslinked with disuccinimidyl suberate. Samples are analyzed by separation on NaDodSO4 /PAGE and subsequent autoradiography. […] However, the anti-EGF receptor antiserum does specifically immunoprecipitate dp100. Similar results are observed when membrane proteins from two different Drosophila cell lines, Schneider L2 and Kc, are analyzed.\nControls with preimmune serum fail to immunoprecipitate dp100 or any other growth factor binding protein."}, "dp100 [2]": {"molecular_target": "T1, dp100", "test": "Affinity labelling of intact Drosophila membranes", "format": "binding"}, "dp100 [3]": {"molecular_target": "T1, dp100", "test": "Competitive affinity labelling of immunoprecipitated dp100 with 125I-insulin as label", "format": "binding", "details": "for pKd: competition with 125I-insulin", "description": "as §1, with “The cleared supernatants are treated overnight with anti-EGF receptor antiserum (1:10 dilution), anti-insulin receptor antiserum (1:50), or rabbit preimmune serum (1:10), and the product precipitated with protein A-Sepharose beads.” left out, “125I-EGF (35 nM) or 125I-insulin (20 nM) is added, and the samples incubated 60 min at 15° C.” left out\nTo ensure linearity, several exposures are taken. Dissociation constants are determined by statistical analysis.\nThe dissociation constants ranged from 10^-6 M to 10^-9 M."}, "[4]": {"molecular_target": "T2, EGF receptor in human epithelial carcinoma A431 cells (Homo sapiens, UniProt P00533)", "T2 construct": "endogenous in cells; host or cells: A431 cells (American Type Culture Collection)", "test": "Competition with 125I-EGF for binding to the EGF receptor in A431 cells", "details": "4° C., 3 hr, FIG. 2", "description": "FIG. 2 is a graph of the competitive binding of murine EGF and synthetic human TGF-alpha to the EGF receptor in A431 cells. ^125 I-EGF (10^5 cpm) was incubated with A431 cells (2×10^4 cells/well) at 4° C. for 3 hr in the presence of different M concentrations of unlabelled EGF ( ) or TGF-alpha ( ). The percent of binding as compared to the control is the mean of duplicate determinations with the error less than 10%.\nGrowth factor binding to A431 cells: A431 cells are grown in monolayer and ^125 I-labelled EGF bound to the cells as described by B. Friedman et al in Proc. Natl. Acad. Sci. U.S.A. 81, 3034-3039 (1984).\nTo ensure that the difference in the binding affinities of EGF and TGF-alpha for dp100 reflects a property of the protein rather than the particular growth factor preparations, the ability of unlabelled EGF and TGF-alpha to compete with ^125 I-labelled EGF for binding to the EGF receptor in human epithelial carcinoma A431 cells was determined."}, "170 kDa EGF receptor": {"molecular_target": "T3, 170 kDa EGF receptor (Mus musculus, UniProt Q01279)", "T3 construct": "170 kDa EGF receptor immunoprecipitated from murine 3T3 fibroblast membranes; endogenous in cells; host or cells: Swiss 3T3 mouse fibroblasts (solubilized membranes, immunoprecipitated)", "test": "Affinity labelling of EGF receptor immunoprecipitated from murine 3T3 fibroblast membranes", "format": "binding", "description": "as §1, with “Binding specificity is tested by the simultaneous addition of a 1000-fold excess of unlabeled ligand (30 microM) and labeled ligand. Bound growth factor is crosslinked to the immunoprecipitates by addition of disuccinimidyl suberate to 0.4 mM and incubation for 15 min at 0° C. The samples are then centrifuged and the supernatant removed. The pellets are resuspended in sample buffer (33 mM Tris.HCl, pH 6.5, 2% NaDodS04, 10% glycerol, 0.1% bromophenol blue, 2% 2-mercaptoethanol) and boiled. The protein A-Sepharose beads are removed by centrifugation, and the supernatants run on 6.5% polyacrylamide/NaDodS04 gels.” left out\nThe dp100 has a higher affinity for insulln than EGF. First, in crosslinking experiments with membranes, binding of ^125 I-insulin but not ^125 I-EGF is detected."}, "[5]": {"details": "densitometric scanning of autoradiograms, read-out: Dissociation constants for ligand binding to dp100, KD"}, "[6]": {"details": "read-out: dissociation constant (Kd) for binding to dp100"}}, "note": "pKd: −log10 of the molar value. Like-named read-outs stand apart in the source and are kept apart here."}
{"substance": "TGF-beta: 125I-TGF-beta, structurally unrelated growth factor", "values": [{"measurement": "affinity labelling (crosslinking) of dp100 by 125I-labelled ligand", "setting": "dp100 [1]", "result": "neither ^125 I-TGF-beta nor ^125 I-PDGF, two structurally unrelated growth factors, can be crosslinked"}]}
{"substance": "PDGF", "values": [{"measurement": "affinity labelling (crosslinking) of dp100 by 125I-labelled ligand", "setting": "dp100 [1]", "result": "neither ^125 I-TGF-beta nor ^125 I-PDGF, two structurally unrelated growth factors, can be crosslinked"}]}
{"substance": "INSULIN: porcine insulin from Biomedical Technologies Inc.", "values": [{"measurement": "inhibition of 125I-insulin and 125I-EGF binding to dp100, comparison of unlabeled ligands", "setting": "dp100 [1]; competition with unlabeled ligand", "result": "more effective than EGF"}, {"measurement": "affinity labelling (crosslinking) of dp100 by 125I-labelled ligand", "setting": "dp100 [1]", "result": "can be affinity labelled"}, {"measurement": "blocking of 125I-insulin and 125I-EGF binding to dp100 by excess unlabeled ligand", "setting": "dp100 [1]", "result": "can block binding"}, {"measurement": "affinity labelling by 125I-ligand after incubation with intact Drosophila membranes", "setting": "dp100 [2]", "result": "can be detected"}]}
{"substance": "IGF-I: insulin-like growth factor-I (Amgen)", "values": [{"measurement": "pKd", "setting": "dp100 [3]; [5]", "result": 6.30}, {"measurement": "affinity labelling (crosslinking) of dp100 by 125I-labelled ligand", "setting": "dp100 [1]", "result": "can be affinity labelled"}]}
{"substance": "TGF-alpha: Synthetic human transforming growth factor-alpha, synthesized chemically (J. Tam, Rockefeller University)", "values": [{"measurement": "affinity for dp100 relative to that for EGF", "setting": "dp100 [3]", "result": "three orders of magnitude higher"}, {"measurement": "affinity for dp100 relative to human recombinant TGF-alpha", "setting": "dp100 [3]; FIG. 3", "result": "100-1000 times"}, {"measurement": "pKd", "setting": "dp100 [3]; [5]", "result": 8.30}, {"measurement": "pKd", "setting": "dp100 [3]; [6]", "result": 8.30}, {"measurement": "affinity labelling (crosslinking) of dp100 by 125I-labelled ligand", "setting": "dp100 [1]", "result": "can be affinity labelled"}, {"measurement": "affinity for the mammalian EGF receptor, EGF versus TGF-alpha preparations", "setting": "[4]", "result": "no significant difference"}]}
{"substance": "native TGF-alpha: native transforming growth factor-alpha", "values": [{"measurement": "affinity for dp100 compared with recombinant TGF-alpha", "setting": "dp100 [3]; FIG. 3", "result": "within the same order of magnitude as the recombinant form"}]}
{"substance": "EGF: murine epidermal growth factor, receptor grade and HPLC purified", "values": [{"measurement": "affinity for dp100 compared with recombinant TGF-alpha", "setting": "dp100 [3]; FIG. 3", "result": "within the same order of magnitude as the recombinant form"}, {"measurement": "pKd", "setting": "dp100 [3]; [5]", "result": 5.89}, {"measurement": "affinity labelling (crosslinking) of dp100 by 125I-labelled ligand", "setting": "dp100 [1]", "result": "can be affinity labelled"}, {"measurement": "blocking of 125I-insulin and 125I-EGF binding to dp100 by excess unlabeled ligand", "setting": "dp100 [1]", "result": "can block binding"}, {"measurement": "affinity for the mammalian EGF receptor, EGF versus TGF-alpha preparations", "setting": "[4]", "result": "no significant difference"}, {"measurement": "affinity labelling by 125I-ligand after incubation with intact Drosophila membranes", "setting": "dp100 [2]", "result": "is not detected"}, {"measurement": "blocking of 125I-EGF affinity labeling of the murine EGF receptor by excess ligand", "setting": "170 kDa EGF receptor; excess unlabeled ligand", "result": "can be blocked by excess EGF"}, {"measurement": "crosslinking of 125I-ligand to the 170 kDa EGF receptor", "setting": "170 kDa EGF receptor; immunoprecipitated by anti-EGF receptor antiserum", "result": "can be crosslinked"}]}
{"substance": "NGF: Nerve growth factor", "values": [{"measurement": "pKd", "setting": "dp100 [3]; [6]", "result": "< 6.00"}]}
{"substance": "glucagon: glucagon (Sigma Chemical Co.)", "values": [{"measurement": "pKd", "setting": "dp100 [3]; [6]", "result": "< 6.00"}]}
